Assay results reported in patent US20250387450A1.

B1: engineered scaffold protein S090 (designed binder)
chain: IKEEHSIRQNEMYLNPDQSGLFEFHLDGQPIFRVDMQKKRTKWQLEEFGRFASFEAQGALANIAVDKANLEIMTKRSNQSEAGSHSWQLIFVCEFHEGTESVRLSERCYYNQELSVSFNSDVGEYRAVTELGRPDAEYWNSQKDLLEQRRAAVDTYCRHNYGVGESFTVQRRGGSHHHHHHLE
B2: engineered scaffold protein S068 (designed binder)
chain: GDTRPRFLWQLKFECHFFNGTERVRLLERCIYNQEESVRFDSDVGEYRAVTELGRPDAEYWNSQKDLLEQRRAAVDTYCRHNYGVGESFTVQRRVEPKVTVYPSKTQPLQHHNLLVCSVSGFYPGSIEVRWFRNGQEEKAGVVSTGLIQNGDWTFQTLVMLETVPRSGEVYTCQVEHPSVTSPLTVEWRASGGGGSGGGGSGGGGIKEEHVIIQAEFYLNPDQSGEFMFDFDGDEIFHVDMAKKETVWRLEEFGRFASFEAQGALANIAVDKANLEIMTKRSNYTPITNVPPEVTVLTNSPVELREPNVLICFIDKFTPPVVNVTWLRNGKPVTTGVSETVFLPREDHLFRKFHYLPFLPSTEDVYDCRVEHWGLDEPLLKHWEFDAPSGGSHHHHHHLE
B3: engineered scaffold protein S005 (designed binder)
chain: MIKEEHVIIQAEFYLNPDQSGEFMFDFDGDEIFHVDMAKKETVWRLEEFGRFASFEAQGALANIAVDKANLEIMTKRSNYTPMGDTRPRFLWQLKFECHFFNGTERVRLLERCIYNQEESVRFDSDVGEYRAVTELGRPDAEYWNSQKDLLEQRRAAVDTYCRHNYGVGESFTVQGGSHHHHHHLE

Biological target: TRPV1 disordered region polypeptide (UniProt Q8NER1)
Assay: modified sandwich ELISA, fluorescence grade by the table's key

| Binder | fluorescent signal (fluorescentsignal) |
| --- | --- |
| B1 | 100000 to 250000 |
| B2 | 50000 to 100000 |
| B3 | 100000 to 250000 |
